From patent CN114028562A

Target: 天然TSLP
Experiment: cell-based or functional assay

Tezepelumab (antibody)
IC50, inhibition of natural TSLP-induced STAT5 phosphorylation in SW756-STAT5-Luciferase reporter cells: 1.45 ng/mL
